Data taken from US20240358849A1 (SUZHOU FUSE BIOSCIENCES, published 2024).

Target: T1, human Fibroblast Activation Protein (FAP), soluble antigen (human, UniProt Q12884 26-760, biotinylated when immobilized on streptavidin sensors)
T1 construct: also called hFAP; biotinylated FAP
Assay: BLI per 6.1.3, human FAP;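 further: biolayer interferometry with immobilized antigen on sensors, antibody association up to 240 s then dissociation up to 420 s, reference-subtracted, global 1:1 fit with unlinked Rmax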
Experimental: Binding constants (kₒₙ, koff and KD) were determined after referencing by subtracting responses from sensors without immobilized antigen. Data were fit globally with Gator software using a 1:1 binding interaction while fitting the responses to an unlinked Rₘₐₓ. All protein samples were diluted in PBST-BSA. Typical protocol for KD determination:

T1 sequence (Q12884 26-760 limits assumed): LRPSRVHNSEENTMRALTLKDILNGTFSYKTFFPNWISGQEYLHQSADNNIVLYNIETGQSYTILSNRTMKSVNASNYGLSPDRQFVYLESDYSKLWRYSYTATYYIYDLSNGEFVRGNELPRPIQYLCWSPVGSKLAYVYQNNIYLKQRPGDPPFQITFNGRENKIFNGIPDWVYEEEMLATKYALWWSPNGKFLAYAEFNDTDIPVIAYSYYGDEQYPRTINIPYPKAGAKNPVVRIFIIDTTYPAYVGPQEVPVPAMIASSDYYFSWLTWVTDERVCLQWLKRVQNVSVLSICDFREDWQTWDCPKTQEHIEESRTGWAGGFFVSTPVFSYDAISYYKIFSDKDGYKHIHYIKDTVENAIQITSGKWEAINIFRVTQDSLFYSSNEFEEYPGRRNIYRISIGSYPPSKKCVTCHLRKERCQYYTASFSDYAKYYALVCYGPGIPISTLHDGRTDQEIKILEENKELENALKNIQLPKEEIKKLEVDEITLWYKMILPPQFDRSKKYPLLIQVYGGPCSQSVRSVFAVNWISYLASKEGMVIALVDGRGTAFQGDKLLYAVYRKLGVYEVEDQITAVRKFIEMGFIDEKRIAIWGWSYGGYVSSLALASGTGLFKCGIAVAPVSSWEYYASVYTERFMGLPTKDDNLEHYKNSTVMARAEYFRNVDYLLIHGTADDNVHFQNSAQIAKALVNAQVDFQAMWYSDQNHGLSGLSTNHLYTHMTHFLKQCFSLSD

Binder	Kd	koff	kon
872-5 VH Q96L (antibody, V domains shown) VH: EVQLVESGGGLVQPGGSLRLSCAASGFTFRGYIMSWVRQAPGKGLEWVSWISPEGSRTGYADSVKGRFTISRDNSKNTLYLQMNSLRAEDTAVYYCARLLYGTWFDYWGQGTLVTVSS VL: DIQMTQSPSSLSASVGDRVTITCRASQSISSYLNWYQQKPGKAPKLLIYAASSLQSGVPSRFSGSGSGTDFTLTISSLQPEDFATYYCQQATLLLPTFGQGTKVEIKR	1.5 nM	0.000794 s⁻¹	542000 M⁻¹ s⁻¹
872-5 VH Q96L:VL A91G/T92R (antibody, V domains shown, BLI per 6.1.3) VH: EVQLVESGGGLVQPGGSLRLSCAASGFTFRGYIMSWVRQAPGKGLEWVSWISPEGSRTGYADSVKGRFTISRDNSKNTLYLQMNSLRAEDTAVYYCARLLYGTWFDYWGQGTLVTVSS VL: DIQMTQSPSSLSASVGDRVTITCRASQSISSYLNWYQQKPGKAPKLLIYAASSLQSGVPSRFSGSGSGTDFTLTISSLQPEDFATYYCQQGRLLLPTFGQGTKVEIKR	0.707 nM	0.000571 s⁻¹	812000 M⁻¹ s⁻¹
872-5 VH S52G (antibody, V domains shown, BLI per 6.1.3) VH: EVQLVESGGGLVQPGGSLRLSCAASGFTFRGYIMSWVRQAPGKGLEWVSWIGPEGSRTGYADSVKGRFTISRDNSKNTLYLQMNSLRAEDTAVYYCARLQYGTWFDYWGQGTLVTVSS VL: DIQMTQSPSSLSASVGDRVTITCRASQSISSYLNWYQQKPGKAPKLLIYAASSLQSGVPSRFSGSGSGTDFTLTISSLQPEDFATYYCQQATLLLPTFGQGTKVEIKR	2.2 nM	0.00138 s⁻¹	642000 M⁻¹ s⁻¹
872-5 VH S52G/Q96L (antibody, V domains shown, BLI per 6.1.3) VH: EVQLVESGGGLVQPGGSLRLSCAASGFTFRGYIMSWVRQAPGKGLEWVSWIGPEGSRTGYADSVKGRFTISRDNSKNTLYLQMNSLRAEDTAVYYCARLLYGTWFDYWGQGTLVTVSS VL: DIQMTQSPSSLSASVGDRVTITCRASQSISSYLNWYQQKPGKAPKLLIYAASSLQSGVPSRFSGSGSGTDFTLTISSLQPEDFATYYCQQATLLLPTFGQGTKVEIKR	0.251 nM	0.000161 s⁻¹	645000 M⁻¹ s⁻¹
872-5 VH S52G/Q96L/VL T92R (antibody, V domains shown, BLI per 6.1.3) VH: EVQLVESGGGLVQPGGSLRLSCAASGFTFRGYIMSWVRQAPGKGLEWVSWIGPEGSRTGYADSVKGRFTISRDNSKNTLYLQMNSLRAEDTAVYYCARLLYGTWFDYWGQGTLVTVSS VL: DIQMTQSPSSLSASVGDRVTITCRASQSISSYLNWYQQKPGKAPKLLIYAASSLQSGVPSRFSGSGSGTDFTLTISSLQPEDFATYYCQQARLLLPTFGQGTKVEIKR	0.087 nM	7.61e-05 s⁻¹	878000 M⁻¹ s⁻¹
872-5 VH S52G/Q96L:VL A91G/T92R (antibody, V domains shown, BLI per 6.1.3) VH: EVQLVESGGGLVQPGGSLRLSCAASGFTFRGYIMSWVRQAPGKGLEWVSWIGPEGSRTGYADSVKGRFTISRDNSKNTLYLQMNSLRAEDTAVYYCARLLYGTWFDYWGQGTLVTVSS VL: DIQMTQSPSSLSASVGDRVTITCRASQSISSYLNWYQQKPGKAPKLLIYAASSLQSGVPSRFSGSGSGTDFTLTISSLQPEDFATYYCQQGRLLLPTFGQGTKVEIKR	0.241 nM	0.000178 s⁻¹	737000 M⁻¹ s⁻¹
872-5 VL A91G (antibody, V domains shown, BLI per 6.1.3 (monovalent Fab-Fc)) VH: EVQLVESGGGLVQPGGSLRLSCAASGFTFRGYIMSWVRQAPGKGLEWVSWISPEGSRTGYADSVKGRFTISRDNSKNTLYLQMNSLRAEDTAVYYCARLQYGTWFDYWGQGTLVTVSS VL: DIQMTQSPSSLSASVGDRVTITCRASQSISSYLNWYQQKPGKAPKLLIYAASSLQSGVPSRFSGSGSGTDFTLTISSLQPEDFATYYCQQGTLLLPTFGQGTKVEIKR	0.78 nM	0.00102 s⁻¹	1.3e+06 M⁻¹ s⁻¹
872-5 VL A91G/T92R (antibody, V domains shown, BLI per 6.1.3) VH: EVQLVESGGGLVQPGGSLRLSCAASGFTFRGYIMSWVRQAPGKGLEWVSWISPEGSRTGYADSVKGRFTISRDNSKNTLYLQMNSLRAEDTAVYYCARLQYGTWFDYWGQGTLVTVSS VL: DIQMTQSPSSLSASVGDRVTITCRASQSISSYLNWYQQKPGKAPKLLIYAASSLQSGVPSRFSGSGSGTDFTLTISSLQPEDFATYYCQQGRLLLPTFGQGTKVEIKR	0.398 nM	0.000411 s⁻¹	1.03e+06 M⁻¹ s⁻¹
